Experiments:
mAb1 [1] = experiment: Evaluation of reaction temperature for hydrolysis of mAb1 sugar chain; type: biochemical
Experimental: The hydrolysis rates of a sugar chain with Endo-Si and EndoS at individual temperatures were measured as follows. A 50 mM Tris-HCl buffer (pH 7.5) solution (50 μL) containing 0.1 mg of mAb1 and 10 ng of Endo-Si WT or EndoS WT was prepared and incubated at each temperature of 27, 29, 31, 35, 37, 40, 43, 46, 48, and 50° C. Each of the reaction solutions at a half hour after initiation of a reaction was sampled and the hydrolysis rate of a sugar chain was calculated in accordance with the aforementioned method.

mAb1 [2] = experiment: Evaluation of reaction pH for hydrolysis of mAb1 sugar chain; type: biochemical
Experimental: The hydrolysis rates of a sugar chain with Endo-Si and EndoS at individual pH values were measured as follows. A 50 mM citric acid-sodium phosphate buffer (pH 5.0 or 5.5) solution, sodium phosphate buffer (pH 6.0, 6.5 or 7.0) solution or Tris-HCl buffer (pH 7.5, 8.0, 8.5 or 9.0) solution (50 μL for each) containing 0.1 mg of mAb1, and 10 ng of Endo-Si WT or EndoS WT, was prepared and incubated at 37° C. Each of the reaction solutions at a half hour after initiation of reaction was sampled and the hydrolysis rate of a sugar chain was calculated in accordance with the aforementioned method.

B1: Endo-Si WT: endo-β-N-acetylglucosaminidase derived from Streptococcus iniae, amino acid positions 34 to 928 in SEQ ID NO: 2 (protein, listed as Streptococcus iniae)
chain: REELKMPNGLEQSIADVEAKIDALTYLSKNSKDEFKHSMYEIPSNREHKPVSPKQALQNAKKADAQAERLAKMTIPKKEELKALEGPLYGGYFRTWQDKTSDPTETNKVNSFGELPKEVDLAFVFHDYTKDYSLFWEELATKQVPKLNKQGTRVIRTIPWRFLSGADHSDISADKEKFPNTEAGNKALAKAIVDEYVYKYNLDGLDIDIERDSVPKVNDKEDPEALARTVEVFKEIGKLIGANGADKSRLLIMDTTYTAEENPLIKETAQYLNLLLVQVYGFSGENGNYLHHKNILDETSSMEGRWQGYSKYIRPEQYMVGFSFYEEKDFNNRWKDINEEDPSDPHIGEKIQGTRAERYAKWQPKTGGLKGGLFSYAIDRDGVAQPKQKTEHPELDKIVKSEYKVSKALKKLMMTDDQYQPIDQSDFPDKALRESIIKQVGTRRGDLERFKGTLRLDNPEIKDLTGLNKLKRVAKLELINLPKITKIDKDDLPQNLKPLTDNQKSNLEIKGTYDDSKLYKDIPAFDLVISGLSGLESLDISGHQRDTLSGIDASTLPSLKAINISDNHFDLAQGTENRHILDTILATLAKNGASTASFDKQKPKGLYPESYSTAPLHLQVGQGKINVIDDLIFGTRTNQNTLINTENDFEAYKEQTIQGKPFIAPDYLYDNFKVSYKEYSASIVDSTLAETTDKTIDTAKAETYQVTVSNKDGKTVHSVKVIVGDEKPMMVNLAQDAKIIGTDNMTQSAKVFDGQKDQFLLSWNKDSSVIFELKTPGTAKHWRFFDDGKNDSVTLSVFKGDASNFETEKDKAENWVEITKDSRKNDDKVFSSPLEVDNAKYLKVTIKKEAKYIYFNELQILGYPGVVAKKTADDLRPTEADKSDDKSDKNDTEAK
hydrolysis activity compared with EndoS (mAb1 [1]; at individual temperatures 27 to 50° C.): higher hydrolysis activity than EndoS
optimum reaction temperature for hydrolysis: particularly around (mAb1 [1]; mAb1, pH 7.5, half hour reaction, particularly around (35° C. to 39° C.)): around 37 °C
hydrolysis activity compared with EndoS (mAb1 [2]; at around pH 6.7 or more): higher than that of EndoS
optimum pH for hydrolysis: particularly around (mAb1 [2]; mAb1, 37° C., half hour reaction, particularly around (pH 7.2 to 8.0)): ~7.5 pH
